Results published in publication PMC4213368, “Elucidation of a protein-protein interaction network involved in Corynebacterium glutamicum cell wall biosynthesis as determined by bacterial two-hybrid analysis” (Glycoconjugate Journal, 2014).
Several values for one entry are separate records, joined by “and”; a condition that tells them apart may be missing. Equal entries are not always repeated.

Key:
Assay in all cases: two-hybrid; BACTH in E. coli BTH101, same co-transformants; β-galactosidase activity in Miller units, mean of 3 independent assays; negative control with empty vectors 86 ± 11 Miller units
[1] = molecular target: AftB (Corynebacterium glutamicum ATCC 13032) (UniProt Q8NLR0)
[2] = molecular target: AftC (Corynebacterium glutamicum ATCC 13032) (UniProt Q8NPB7)
[3] = molecular target: AftA (Corynebacterium glutamicum ATCC 13032) (UniProt Q8NTW4)
[4] = molecular target: DprE2 (Corynebacterium glutamicum ATCC 13032)
[5] = molecular target: UbiA (Corynebacterium glutamicum ATCC 13032)
[6] = molecular target: WecA (Corynebacterium glutamicum ATCC 13032)
[7] = molecular target: Emb (Corynebacterium glutamicum ATCC 13032)
[8] = molecular target: the molecule itself

Molecule: UbiA (enzyme)
- β-galactosidase activity [1]: 1020 Miller units
- β-galactosidase activity [2]: 755 Miller units
- β-galactosidase activity [3]: 387 Miller units

Molecule: DprE1 (enzyme)
- β-galactosidase activity [4]: 637 Miller units and 1030 Miller units

Molecule: WecA (enzyme)
- β-galactosidase activity [5]: 1020 Miller units
- β-galactosidase activity [6]: 487 Miller units
- β-galactosidase activity [1]: 1080 Miller units
- β-galactosidase activity [7]: 1350 Miller units
- β-galactosidase activity [2]: 1050 Miller units

Molecule: WbbL (enzyme)
- β-galactosidase activity [5]: 1090 Miller units and 1200 Miller units

B1: AftB (enzyme, Corynebacterium glutamicum ATCC 13032, UniProt Q8NLR0 1-686, looked up)
chain: MTFSPQRPEFETGKQPDPETEHAGDFFEETSSSAPRAASNGSSGPNYTLITTFLAALTAGIFAFWAGWTRKWISDDGLIVLRTVRNLLAGNGPVFNAGERVEANTSTLWQYCIYLVALVTDYRLEDIALWLALLFTTAASIIGVLGTAHLHRKRIAVLLPAGVIGYFSLSPARDFATSGLEWGLSLMWISIQWLLLVLWATSGKTSGKKASGAKTSNPIVNAGAITYALAFWSGLSWLVRPELAMYGGLTGVLLLLTAPRWRVVLGILVAALPLPAAYQIFRMGYYGLMVPHTAVAKSASDAVWGTGWEYVEDFTGPYNLWLGLALLLAAGALTVWKTDKHLAIPKGRLGLRTPGMAIALLVICALVHFLYVIRVGGDFMHGRMLLLPLFAILLPVSVIPVNVVDRGWQDLVALVLVFSTWVWSTVVFVQGHQWENTGQHVVDERDFWIDFTNRDEDHPPLYAEDFLTVDSMNDYAEVMRDQTLVNPTGQQLNILASSDPTTYSWITTPRVEGVEAGDLANLSPTVFHVNLGMTSMNAPLNVRVTDLIGLATPLAARQPRIEGGRIGHDKLMDLEWQVAESATPLAYTPGWLDTQKTYEARQALRHPELVHLFQTYREPMSYHRFVDNIKYALTTGRTLEISDNPEDLLKEFNPTPAEIQDGLETIAWPGEIKLDEPRGEPLYSSQ
notes: AftB, arabinofuranosyltransferase, transmembrane, Corynebacterium glutamicum ATCC 13032; gene amplified from genomic DNA; One molecule for all four fusion forms; also called arabinofuranosyltransferase AftB; AftB-T25^N; source: E. coli BTH101, bacterial two-hybrid (BACTH) fusion; not shown: T25 or T18 fragment of Bordetella pertussis adenylate cyclase, N-terminal or C-terminal (each tested), kept
- β-galactosidase activity [8]: 1180 Miller units

B2: AftC (enzyme, Corynebacterium glutamicum ATCC 13032, UniProt Q8NPB7 1-418, looked up)
chain: MSFSPVAPSISAPTPRRSRWDSIGNAVAWPLAMLLMAHRFFVLAINGAVTDDFTTVYSALRRFVEGIPVYNEVYHFVDPHYLYNPGATLLLAPLGYITHFTLARWMFIAVNLLAIVLAFGLLTRLSGWALRSMVWPIAIALAMLTETVQNTLIFSNINGILLLMLAIFLWCVVHKKSWLGGLVIGLAILIKPMFLPLLFLPLVKKQWGSLILGILTPVIFNAVAWFLVPGASEYVTRTMPYLGETRDFANSSLPGLAIYFGMPTWMEITWFLIFGAMVGLAVLALLRFRNTEPYFWAATTTGVLLTGVFFLSSLGQMYYSMMIFPMIFTLLGSRSVFHNWVAWVAAYFFLSPDTFTSQRLPDVARWMEFFSATVGWGLLIVVTFVSALIWFIGDIRAKGTPSSPITTDPTHDHLERTA
notes: AftC, arabinofuranosyltransferase, transmembrane, Corynebacterium glutamicum ATCC 13032; gene amplified from genomic DNA; One molecule for all four fusion forms; also called arabinofuranosyltransferase AftC; AftC-T25^C; source: E. coli BTH101, bacterial two-hybrid (BACTH) fusion; not shown: T25 or T18 fragment of Bordetella pertussis adenylate cyclase, N-terminal or C-terminal (each tested), kept
- β-galactosidase activity [8]: 398 Miller units

B3: AftA (enzyme, Corynebacterium glutamicum ATCC 13032, UniProt Q8NTW4 1-661, looked up)
chain: MNPYGPSRVPEGEVYRPDRLNRKATLVAIVGAAILAFAFALVLWMGLKQTNLPAFGPSNVTRAVASATIAAVLIVTGFLTWLWLRDEHQSNPRWELEDVKPRPKWRTALTYLASYLSPAALVVAVLAIPLSATRLYLDGISVDQGFRTQFLTRMADDIGLSDMNYIDMPTFYPAGWFWLGGRLANLLGLPGWEAFQPWAIVSMAVAASVLVPVWQRITGSLPVATGIALVTTCIILAMNSEEPYAAIVAMGIPAMLVLASRIAKGDKFALAGGIIYLGVSATFYTLFTGAIALSAVAVCIVVAAIVQRSIKPLLWLAVLGGGSIVIALISWGPYLLASINGAERSGDSATHYLPLEGTQFPVPFLASSVVGLLCLVGLIYLVVRFHNNEVRAMWVGIAVFYAWMGMSMAITLLGNTLLGFRLDTVLVLIFATAGVLGIADFRLASVYQLYPTQITERTATHLTNLIVVLVLLGGLYYAQDLPQKNARAIDLAYTDTDGYGERADLYPAGAARYYKDINDHLLDQGFEPSETVVLTDELDFMSYYPYRGYQAFTSHYANPLGEFGNRNAFIEDLAIRSWDELADPQQFSDALNTSPWTIPEVFIFRGSIDDPDAGWKYDVAEDLYPNNPNVRFRGVYFNPESFDQMWQTKQVGPFVVVTHNE
notes: AftA, arabinofuranosyltransferase, transmembrane, Corynebacterium glutamicum ATCC 13032; gene amplified from genomic DNA; One molecule for all four fusion forms; also called arabinofuranosyltransferase AftA; AftA-T25^N; source: E. coli BTH101, bacterial two-hybrid (BACTH) fusion; not shown: T25 or T18 fragment of Bordetella pertussis adenylate cyclase, N-terminal or C-terminal (each tested), kept
- β-galactosidase activity [8]: 714 Miller units
